Results as given in patent US20090022663A1.

Biological target: 161P2F10B variant 1 (human 161P2F10B), on the cell surface (human) (UniProt O14638)
Assay: FACS titration on KU-812 cells, one site binding fit

Kd: 4.73 nM
B1: H16-1.92.1.1 (antibody, part only; not given: light chain, V domains shown, part only)
VH: EVLLVESGPGLVKPSETLSLTCTVSGGSISSSSYFWGWIRQPPGKGLEWIGSIYYSGNTYYNPSLKSRVTISVDTSKNRFSLKLSSVTAADTAVYCCASATTVTTAFDIWGQGTMVTVSSASTKGPSVFPLAPSS
